Results reported in the DeepSol protein solubility set.

Experiment: soluble on expression in E. coli; label from the status in PepcDB or PDB records

| Sequence | soluble on expression in E. coli |
| --- | --- |
| MSLPIRIDKKLPAVEILRTENIFVMDDQRAAHQDIRPLKILILNLMPQKMVTETQLLRHLANTPLQLDIDFLYMESHRSKTTRSEHMETFYKTFPEVKDEYFDGMIITGAPVEHLPFEEVDYWEEFRQMLEWSKTHVYSTLHICWGAQAGLYLRYGVEKYQMDSKLSGIYPQDTLKEGHLLFRGFDDSYVSPHSRHTEISKEEVLNKTNLEILSEGPQVGVSILASRDLREIYSFGHLEYDRDTLAKEYFRDRDAGFDPHIPENYFKDDDVNQVPCLCWSSSAALFFSNWVNHAVYQETPFDWRKIEDDASAYGYLEGHHHHHH | soluble |
| MSLQAPMALVPVRTIYPGEAISPEQVKSVEVTNPNISAGYASDISEVEGMISKQTLLPGRTIPIAALREPSLVVRGTSVKLVFHIGNMTLMASGTPMSDGSLGEVVRVRNIDSGVMVSGTVMKDGTIQVMAKEGHHHHHH | soluble |
| MSLQENRLKYCIQRMATVFEVSLSGYYDWLKRGMSKRKQHHNRCELLVKSAHMDTQQSYGHERLHQHLTSQGHDISLYMVRQIKQEHGIYCKRHKRSKVTTDSNHNKPVYPNLLEQQFDVAAPNIAWVSDITYIWTNEGWVYLAAFKDLYSKEIVGYALNKRMTADLVCEALNNAIKYKRPARGLIVHSDRGSQYCSHQYRQIIDKYGFAGSMSRKGNCYDNAPIESFWGQLKNELIYHKVYETRDEAIKDVVRYIEIFYNRQRIQKGLGFKSPTQVFQDFYRQAAEGHHHHHH | not soluble |
| MSLQFYSVQTNTLKLATTTFNAEGSMLLSTHWTLNLGFSYNPWNFSDTRKIKHFLIEPGARYWFWQTYAGSFISMYAMGARYNVAWDGLLGGDYRYQGWGYGAGMTYGRSWLLSKRWNMEVEAGLGLLVAPYTKYRCEHCGDKVKSGTYFLPTPKLAFNLVYLFEGHHHHHH | not soluble |
| MSLQGKFQPTWESLANYKIPEWFRNVKFGIWAHWGPQCVEGSGDWMARSLYMENSPEYRHHIANYGHPSEFGFKDIIPLWKAEKWDPDKLVAFYKKIGAQYFFALGNHHDNMDLWDSKYQPWNSVNMGPKKDILKGWERAARKHGLYFGVSLHADHAWSWYETSQRHDTQGPKKGIPYDGKLTKADGKGKWWEGYDPQDLYAQNHPLSQDSWDNGTIHRQWAWGNGVCLPTQEYCTNFYNRTLDVINRYNPDLLYFDVTVAPFYPISDAGLKIAAHFYNHNMSMQKGKLNAVMFGKILDANQRKALVWDVERGAPNKIIDEPWQSCSCLGGWHYNTSIYNNNQYKSAADVVKLLVDIVSKNGNLLLSVPLRADGTFDEKEEKILNEFGNWMNINKEAIYQTRPWKIFGEGPIADKDVQLNAQGFNEWAYSKADAKEIRFTQTDKNLYATVLGWPEDGKILIRSLAEGNGLYPTKIGRVELLGYGKVSFTRTDKGLVVDIPAKSLKNIAPVLKIRKEGHHHHHH | soluble |
| MSLQGPNPIITVYSTQDYPILHAELASQVYLMDQVEQWENMISQRLSANPSVAAQQASQIFQSAEWKQSEEQLKRSYQGLISGWQNGIKKVPAVLFQYPGKEDSVIYGETNIAQALSLWQREITKEGTREGHHHHHH | soluble |
| MSLQIAQVLVDVPTMQTNRPYSYRIPTAWQSQVQPGMRVVVPFGRGKRRVQGFVLALDDVTNFDGELKPIDAVVDLAPVLNTEALALTKWLAASTFSFQITCAQTMLPAVMRAKYEKQLRTTATTPATIRTTLFGDQSMVPFDDVATTPAIVSQLLRLQAAGQVDVYYQVKNQARRKTQTAVKAALTNEALQAAVDQVRAGATQQLAVLQGLLTLNGEQLSQKAFCTRFDVTDGAIRTAVQKGWLKKVAVEVYRDPYATSDIKTTKALQLNDEQQVAVDQITQAVDQAATTTFLLEGVTGSGKTEVYLQSMAAALVQGKTALMLVPEISLTPQMVQRVKGRFGKAVAVLHSGLSSGEKYDEWRRIQRGEAQVVVGARSAVFAPLKNLGLIVMDEEHESTYKQDDAPRYHARQVALWRSRYHNCPVVLGSATPSLETRARAEKGVYQRLLLADRVNRRPLPKVSIIDMKKEMQQHAESNFSAPLLVALQDRLERHEQSVLMLNRRGYSSFVLCRDCGFVLKCPNCDISLTLHMDTHTMKCHYCGHEEAIPRNCPNCHSRQIRYYGTGTEKVEEELQDLLPDANIIRMDNDTTRKKGAHAKLLAQFGSGEADILIGTQMIAKGLDFPNVTLVGVLNADTALGLPDFRASERTFQLLTQVSGRAGRAEKSGHVYIQTFNPDHYAIRFAQHHDYEGFFKYEMQMRHRGGYPPYYFTVQITASDLDEGVAAKRMYQLLQWLRPRLAPSTILLGPTPKPIARVNRRYYYQIVIKYKQEPNLAQTLTTLLHETQAQQRQGLQIGIDVEPLHFMEGHHHHHH | soluble |
| MSLQKPKIAFIDDEPRILRSLKMHFRQSHDVFITTDASELMKYVSEHDVQVVISDQRMPDKQGTEVLRDIKAASPNTLRILLTGYADLNAVIDSVNEGEIYRYITKPWQNDELKQIVNKATEIAQQTQEITQNTEGHHHHHH | not soluble |
| MSLQKVKLPLTLDPVRTAQKRLDYQGIYTPDQVERVAESVVSVDSDVECSMSFAIDNQRLAVLNGDAKVTVTLECQRCGKPFTHQVYTTYCFSPVRSDEQAEALPEAYEPIEVNEFGEIDLLAMVEDEIILALPVVPVHDSEHCEVSEADMVFGELPEEAQKPNPFAVLASLKRKEGGSHHHHHH | soluble |
| MSLQTWIWYPGDYEIWLGNRMNNRRTERGAFFPPFWKTDSHYVVVEFSKKLDLAEPEEIFIAAEGKYNVKLDGKLQFGMPSTLKLPAGKHSLNIKVWNQSTPPTIYVKGKTVNTDKTWKVTYEDKEWIDESGKASDTSATVYMDAGCWNFDGATQLPSKFSLARKPMKAVSSTPRKEGVLYDFGKETFGYITLKEVKGKGTIHIYYGESPEEALDTEYCETLDKLLAEPGQITDLAIRNTRKLYDEYTLDNSKAFRYVYVTCDPGVTIQDVSMQYEYLPEEYRGSFKCNDEELNRIWEVGAYTMHLTTREFFIDGIKRDRWVWSGDAIQSYLMNYYLFFDNETVKRTIWLLRGKDPVTSHSNTIMDYTFYWFLSIYDYYMYSGDKDFVTQLYPRMQSMMDYVLGRTNANGMVEGMTGDWVFVDWADGYLDKKGELSFEQVLFCKSLETMALCAGLAGNTADKTKYEKLASALRSKLEPAFWNEQKQAMVHNRVQGKQSESVTRYANMFSVFFNYLNADKQQTIKHSVLQNDSILKITTPYMRFYELEALCALGEQESVMKEMKAYWGGMLKEGATSFWEKYNPEETGTRHLAMYGRPYGKSLCHAWGASPIYLLGKYYLGVKPTKPGYEEYSVTPCLGGLKWMEGTVPTPYGNIHIYMDKKEIRIKSDGGKGVLNIPTRKGMKAMTIEPGEEQVFKYEGHHHHHH | soluble |
| MSLQVEGLSINLATIREQCGFAEAVDVCLKHGITAIAPWRDQVAAIGLEEASRIVRSNGLKLTGLCRGGFFPAPDAAGREKAIDDNKRAVDEAAELGADCLVLVVGGLPGGSKNIDAARSMVLEGIAAVLPHARAAGVPLAIEPLHPMYAADRACVNTLGQALDICEALGPGVGAAIDVYHVWWDPDLNEQIARAGRMKAILAHHICDWLVPTKDMLTDRGMMGDGVIDLKAIRREVEAAGFHGAQEVEIFSADNWWKRPAEEVIATCVERYRSCCRDDEGHHHHHH | soluble |
| MSLQVTDVEIAQYYQDNKAQFMTQHLAHIQFANEQDAKVAYEELQKGANFADVAKAKSLDKISGENGGDLGWVNENELPKAFEDAAAALQVGQYSQPINVDGNYHIVLVQERKAQSLENVKAQIADLVRKSLMESRYFSLEKQASDKAFEDSKSLNTAAQAAGVKVQESDYFSRQNVPAGLNFPNVIYTIFESDTTNVGMNSEPINVGDYHTIIVRVLDRKAEGVKSLEEAKIDIETFLKRQKAENALNGKAQQAVKKLSENPESKVDGINFSSEQTFTLSENKDPILTNGIFSIAKPESSKALYQVVHNSNGDVVVVALNKVEQGSLSEKELSQFAMQLLRSHQSELQVQLIQGLRERAKIEVNDSFINQDDEAQEGHHHHHH | soluble |
| MSLQVWTKLFAKSPFKPLIKHAEVVVETVETLEKALEAWAKGDYEKMKELAVEVDRLEDVADRIKMELRESITAKLLMPVQRSDVLEYLHMQDKIADAAEDTAKWLLVRDRGNVPEDIKDIILKMGKESIRAAKLVYEAIKQMDMVVESGFSENEIKKEYDLIRQIEEVENKIDGLDTKLMRLVLNANISWTEGIYLLNIGRTISNISDKAKDAAERIRIMMSKEGHHHHHH | soluble |
| MSLRGIRMKDYDLIVIGTGSGMNYVNSIIDSNPKMKIAVIDKDEPGGICLTRGCIPSKLLLYPAELVRDLETAPLFGIKLEIKDIEFRTIMERMRKRIGEDIEMIRQGLTENDYLDYYPETAEFISPYTLKAGDEILHSEMIFLCTGSKPAVPPVRGLEEAGYLTSDTVLGLNECPKSLAILGGSYIGAEYGHFFSAMGAEVTVIGRNQHFLPQEEPEVSELARIKMSEYMRILTNHEAIEVRKEKGGQKTVIAKDRDSGEETEVTADEILVATGRAPNNDILHPEKAGIKTDPHGWILVNEYLETSQPNIWAFGDANGKYLLKHVGNYESGIVYLNAIMQEKVKVDYHAVPHAVFSYPEIAGVGMSEKEAIEEFGEKRVIIGFKLFEDTAKGSAMETRDYFVKVILDGLEDKILGAHIIGPHASVLIHQIIPLMYTASRSAKPMMQMMDIHPALSEVVKRAFYSRLSPEHYHHVMKHLGLEDEDSVEGHHHHHH | soluble |
| MSLRGQVHSVFVVVPRFNLTTLITMIETMRIGNYLSSERLFSWEVTSFDGLNLGASNGVRVHLDVEPDQTAPADQVFVLASWGGEHYQNKALASWLRKRARQGERICAVELGCYLVARAGLMDGKEATTHWSWINGFQEKFDQISVVEQLFTIDGRILTCAGGMAGVDLMLRLIEQSHGAGFSGEIADQMLHNPIRKGSSSQRRTMGRGTESILPLVRQAMTLIERNIEEPLTVPQIAAALDVSQRQLERQFKKHVGCTVVQFGLLRRLQNARVLLIATELSVREIATASGFNTLSHFSYSFSKFFGRRPSDYREAWPSNEAAPTWPGTLSDFLHAINSGDKREGHHHHHH | not soluble |
| MSLRIALAGAGAFGEKHLDGLKNIDGVEITSIISRTGEQAAAVAAKYGAKHSSTELEDALARDDVDAVILCTPTQMHASQAIACMKAGKHVQVEIPLADSWADSQEVLRVQQETGKVCMVGHTRRFNPSHQFVHNRIKAGEFNVQQMDVQTYFFRRKNINAKGEPRSWTDHLLWHHAAHTVDLFAYQAGRIVKANAVEGPIHPELGIAMDMSIQLKSETGAICTLSLSFNNDGPLGTFFRYIGDTATYIARYDDLVNGKEEPIDVSKVDVSMNGIELQDREFVAAIREGREPNSSVQKVFDCYRVLGELEQQLAKGEGHHHHHH | soluble |
| MSLRIAVDAMGGDHAPKAVIDGVIKGIEAFDDLHITLVGDKTTIESHLTTTSDRITVLHADEVIEPTDEPVRAVRRKKNSSMVLMAQEVAENRADACISAGNTGALMTAGLFIVGRIKGIDRPALAPTLPTVSGDGFLLLDVGANVDAKPEHLVQYAIMGSVYSQQVRGVTSPRVGLLNVGTEDKKGNELTKQTFQILKETANINFIGNVEARDLLDDVADVVVTDGFTGNVTLKTLEGSALSIFKMMRDVMTSTLTSKLAAAVLKPKLKEMKMKMEYSNYGGASLFGLKAPVIKAHGSSDSNAVFRAIRQAREMVSQNVAALIQEEVKEEKTDEEGGSHHHHHH | soluble |
| MSLRIEEIRRYHESLMVELDRIYRIAEAARKKGLDPELSVEIPIAKNMAERVEKLMNLQGLAKRIMELEEGGLSRELICFKVADEIVEGKFGEMPKEEAIDKAVRTAVAIMTEGVVAAPIEGIARVRIDRENFLRVYYAGPIRSAGGTAQVISVLVADYVRRKAEIGRYVPTEEEILRYCEEIPLYKKVANLQYLPSDEEIRLIVSNCPICIDGEPTESAEVSGYRNLPRVETNRVRGGMALVIAEGIALKAPKLKKMVDEVGIEGWEWLDALIKGEGHHHHHH | soluble |
